The text below walks through data of US20110059504A1.

Where a chain is given by its changes, count along the chain named.

The target of assay [1] is T1, human myostatin (human) (UniProt O14793).
T1 sequence (biotinylated in selections and radioactive assays (site not stated), looked up): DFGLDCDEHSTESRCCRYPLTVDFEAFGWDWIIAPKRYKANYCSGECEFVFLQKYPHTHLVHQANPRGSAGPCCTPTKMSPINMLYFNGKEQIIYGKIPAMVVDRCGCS
The assay can be described thus: cell-based or functional assay.

Assay [2] concerns the target T1, human myostatin (human).

B1: M56, E. coli-produced (designed binder)
chain: MTIPEIIIKVRGTQVVGSDMTVIVEFSNPFKETLRNVWVHLDGPGVTRPMKKMFSEIRPNSTVQWEEVVRPWVSGHRKLIARCSLSPWHVYGELDVQIQRRHHHHHH
B1 showed an MPC-11 cell proliferation assay, IC50 in assay [1] of 150 to 200 nM.

B2: M71, E. coli-produced (designed binder)
chain: B1 chain with S27T, N36S
Molecule B2 had an MPC-11 cell proliferation assay, IC50 in assay [1] of 150 to 200 nM.

B3: M07, E. coli-produced (designed binder)
chain: B1 chain with S27T, N36S, S55R, R58P, N60K, S61T, S84Q, S86L
B3 gave an MPC-11 cell proliferation assay, IC50 in assay [1] of 150 to 200 nM.

B4: M3-1, E. coli-produced (designed binder)
chain: MTIPEIIIKVRGTQVVGSDMTVIVEFTNPLKETLRNVWVHLDGPGVTRPMKKMFRAIPMNHKVQWEEVVRPWVSGHRKLIASMPQLFHIHVYGELDVQIQRRHHHHHH
For the molecule B4, the EC50 (read off the curve); blocking of myostatin-induced inhibition of MPC-11 proliferation in assay [2] came out at 30 nM.
